US7432061B2, “Assays for measuring matrix metalloproteinase activities” (BioZyme, Inc., priority 2002, dated 2008)

Key:
[1] = target: collagenase 3 (Homo sapiens, UniProt P45452); experiment: Inhibition with type II collagen, FlSub3 cleavage; type: biochemical; conditions: for Average Percent Inhibition from 1.1 to 6.6 Hours / Average Percent Inhibition: COL3(.013 nM)
Protocol: (§1) In a 96 well plate, collagenase 3 (0.013 nM), collagenase 1 (1.25 nM), stromelysin 1 (0.8 nM), gelatinase A (0.025 nM), or gelatinase B (0.008 nM) were reacted with 20 uM FlSub3 in standard assay buffer in the presence of varying concentrations of bovine type II collagen (0.18-44 ug/ml). The type II collagen, a 1 mg/ml stock in 0.5M acetic acid, was transferred into assay buffer by passing the material through a biospin P6 column from Amersham. The reaction was initiated by addition of substrate to enzyme containing either buffer or an appropriate amount of type II collagen. Data points were taken every 15 min over a period of 15 hours using an excitation and emission wavelength of 350 and 485 nm respectively. The usable data (1-6 hours), was taken and the percent inhibition by type II collagen was calculated for each enzyme and plotted as a function of inhibitor concentration and time in the assay. It should be noted that the percent inhibition varies with time as the bovine substrate is consumed during the reaction course.

[2] = target: gelatinase B (Homo sapiens, UniProt P14780); experiment: Inhibition with type II collagen, FlSub3 cleavage; type: biochemical; conditions: for Improvement In Selectivity (Gel-B v Col-3): 44 ug/ml Type II Collagen vs no Type II Collagen, FlSb3; for Average Percent Inhibition from 1.1 to 6.6 Hours / Average Percent Inhibition: GELB(.008 nM)
Protocol: as §1

[3] = TypeIICOL(1.6 ug/ul), FISb3, hour 0.10 to 1.10
[4] = TypeIICOL(1.6 ug/ul), FISb3, hour 1.10 to 2.10
[5] = TypeIICOL(1.6 ug/ul), FISb3, hour 1.10 to 6.60
[6] = TypeIICOL(1.6 ug/ul), FISb3, hour 2.10 to 3.10
[7] = TypeIICOL(1.6 ug/ul), FISb3, hour 3.10 to 4.10
[8] = TypeIICOL(1.6 ug/ul), FISb3, hour 4.10 to 5.10
[9] = TypeIICOL(1.6 ug/ul), FISb3, hour 5.10 to 6.10
[10] = TypeIICOL(4.9 ug/ul), FISb3, hour 0.10 to 1.10
[11] = TypeIICOL(4.9 ug/ul), FISb3, hour 1.10 to 2.10
[12] = TypeIICOL(4.9 ug/ul), FISb3, hour 1.10 to 6.60
[13] = TypeIICOL(4.9 ug/ul), FISb3, hour 2.10 to 3.10
[14] = TypeIICOL(4.9 ug/ul), FISb3, hour 3.10 to 4.10
[15] = TypeIICOL(4.9 ug/ul), FISb3, hour 4.10 to 5.10
[16] = TypeIICOL(4.9 ug/ul), FISb3, hour 5.10 to 6.10
[17] = TypeIICOL(15 ug/ul), FISb3, hour 0.10 to 1.10
[18] = TypeIICOL(15 ug/ul), FISb3, hour 1.10 to 2.10
[19] = TypeIICOL(15 ug/ul), FISb3, hour 1.10 to 6.60

gelatinase B, sequence (P14780 94-707): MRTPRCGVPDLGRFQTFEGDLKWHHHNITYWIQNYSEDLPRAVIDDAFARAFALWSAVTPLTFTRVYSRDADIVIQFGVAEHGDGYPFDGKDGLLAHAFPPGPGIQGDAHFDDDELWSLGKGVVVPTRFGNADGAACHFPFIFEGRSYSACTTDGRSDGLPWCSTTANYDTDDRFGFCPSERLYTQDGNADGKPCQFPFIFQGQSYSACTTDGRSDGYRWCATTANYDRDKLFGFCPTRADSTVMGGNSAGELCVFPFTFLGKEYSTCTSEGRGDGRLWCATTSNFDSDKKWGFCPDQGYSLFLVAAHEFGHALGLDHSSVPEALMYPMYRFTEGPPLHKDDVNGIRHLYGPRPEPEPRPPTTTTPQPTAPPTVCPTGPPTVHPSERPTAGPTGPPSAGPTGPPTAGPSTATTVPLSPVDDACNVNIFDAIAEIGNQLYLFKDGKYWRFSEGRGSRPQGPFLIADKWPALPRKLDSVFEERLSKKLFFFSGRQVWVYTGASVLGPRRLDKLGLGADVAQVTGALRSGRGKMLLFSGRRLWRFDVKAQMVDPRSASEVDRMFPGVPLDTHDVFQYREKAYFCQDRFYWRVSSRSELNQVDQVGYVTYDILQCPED

Average Percent Inhibition from 1.1 to 6.6 Hours ([1]; Type II Collagen 0.18 ug/ml): −8%
Average Percent Inhibition from 1.1 to 6.6 Hours ([1]; Type II Collagen 0.54 ug/ml): −11%
Average Percent Inhibition from 1.1 to 6.6 Hours ([1]; Type II Collagen 1.63 ug/ml): −11%
Average Percent Inhibition from 1.1 to 6.6 Hours ([1]; Type II Collagen 4.89 ug/ml): −28%
Average Percent Inhibition from 1.1 to 6.6 Hours ([1]; Type II Collagen 14.67 ug/ml): −44%
Average Percent Inhibition from 1.1 to 6.6 Hours ([1]; Type II Collagen 44.00 ug/ml): −53%
Average Percent Inhibition [1, 3]: 16%
Average Percent Inhibition [1, 4]: −4%
Average Percent Inhibition [1, 5]: −11%
Average Percent Inhibition [1, 6]: −15%
Average Percent Inhibition [1, 7]: −13%
Average Percent Inhibition [1, 8]: −12%
Average Percent Inhibition [1, 9]: −11%
Average Percent Inhibition [1, 10]: 8%
Average Percent Inhibition [1, 11]: −31%
Average Percent Inhibition [1, 12]: −28%
Average Percent Inhibition [1, 13]: −38%
Average Percent Inhibition [1, 14]: −31%
Average Percent Inhibition [1, 15]: −25%
Average Percent Inhibition [1, 16]: −21%
Average Percent Inhibition [1, 17]: 6%
Average Percent Inhibition [1, 18]: −48%
Average Percent Inhibition [1, 19]: −44%
Average Percent Inhibition ([1]; TypeIICOL(15 ug/ul), FISb3, hour 2.10 to 3.10): −59%
Average Percent Inhibition ([1]; TypeIICOL(15 ug/ul), FISb3, hour 3.10 to 4.10): −50%
Average Percent Inhibition ([1]; TypeIICOL(15 ug/ul), FISb3, hour 4.10 to 5.10): −41%
Average Percent Inhibition ([1]; TypeIICOL(15 ug/ul), FISb3, hour 5.10 to 6.10): −34%
Average Percent Inhibition ([1]; TypeIICOL(44 ug/ul), FISb3, hour 0.10 to 1.10): 2%
Average Percent Inhibition ([1]; TypeIICOL(44 ug/ul), FISb3, hour 1.10 to 2.10): −55%
Average Percent Inhibition ([1]; TypeIICOL(44 ug/ul), FISb3, hour 1.10 to 6.60): −53%
Average Percent Inhibition ([1]; TypeIICOL(44 ug/ul), FISb3, hour 2.10 to 3.10): −71%
Average Percent Inhibition ([1]; TypeIICOL(44 ug/ul), FISb3, hour 3.10 to 4.10): −60%
Average Percent Inhibition ([1]; TypeIICOL(44 ug/ul), FISb3, hour 4.10 to 5.10): −49%
Average Percent Inhibition ([1]; TypeIICOL(44 ug/ul), FISb3, hour 5.10 to 6.10): −41%
Average Percent Inhibition ([1]; TypeIICOL(.18 ug/ul), FISb3, hour 0.10 to 1.10): 6%
Average Percent Inhibition ([1]; TypeIICOL(.18 ug/ul), FISb3, hour 1.10 to 2.10): −9%
Average Percent Inhibition ([1]; TypeIICOL(.18 ug/ul), FISb3, hour 1.10 to 6.60): −8%
Average Percent Inhibition ([1]; TypeIICOL(.18 ug/ul), FISb3, hour 2.10 to 3.10): −10%
Average Percent Inhibition ([1]; TypeIICOL(.18 ug/ul), FISb3, hour 3.10 to 4.10): −8%
Average Percent Inhibition ([1]; TypeIICOL(.18 ug/ul), FISb3, hour 4.10 to 5.10): −7%
Average Percent Inhibition ([1]; TypeIICOL(.18 ug/ul), FISb3, hour 5.10 to 6.10): −6%
Average Percent Inhibition ([1]; TypeIICOL(.55 ug/ul), FISb3, hour 0.10 to 1.10): 14%
Average Percent Inhibition ([1]; TypeIICOL(.55 ug/ul), FISb3, hour 1.10 to 2.10): −11%
Average Percent Inhibition ([1]; TypeIICOL(.55 ug/ul), FISb3, hour 1.10 to 6.60): −11%
Average Percent Inhibition ([1]; TypeIICOL(.55 ug/ul), FISb3, hour 2.10 to 3.10): −15%
Average Percent Inhibition ([1]; TypeIICOL(.55 ug/ul), FISb3, hour 3.10 to 4.10): −12%
Average Percent Inhibition ([1]; TypeIICOL(.55 ug/ul), FISb3, hour 4.10 to 5.10): −10%
Average Percent Inhibition ([1]; TypeIICOL(.55 ug/ul), FISb3, hour 5.10 to 6.10): −10%
inhibition of collagenase 3 by type II collagen ([1]; FlSub3): not observed
increase in specificity of collagenase 3 (factor) ([1]; highest concentration of collagen, FlSb3): 2.5
effect on collagenase 3 at the highest concentrations of type II collagen ([1]; highest concentrations, FlSub3): activation, rather than inhibition
Improvement In Selectivity (Gel-B v Col-3) [2]: 46 fold
Improvement In Selectivity (Gel-B v Col-3) ([2]; listed as collagen): approximately 80 fold
Average Percent Inhibition from 1.1 to 6.6 Hours ([2]; Type II Collagen 0.18 ug/ml): 9%
Average Percent Inhibition from 1.1 to 6.6 Hours ([2]; Type II Collagen 0.54 ug/ml): 9%
Average Percent Inhibition from 1.1 to 6.6 Hours ([2]; Type II Collagen 1.63 ug/ml): 12%
Average Percent Inhibition from 1.1 to 6.6 Hours ([2]; Type II Collagen 4.89 ug/ml): 38%
Average Percent Inhibition from 1.1 to 6.6 Hours ([2]; Type II Collagen 14.67 ug/ml): 65%
Average Percent Inhibition from 1.1 to 6.6 Hours ([2]; Type II Collagen 44.00 ug/ml): 84%
Average Percent Inhibition [2, 3]: −28%
Average Percent Inhibition [2, 4]: 14%
Average Percent Inhibition [2, 5]: 12%
Average Percent Inhibition [2, 6]: 19%
Average Percent Inhibition [2, 7]: 15%
Average Percent Inhibition [2, 8]: 11%
Average Percent Inhibition [2, 9]: 7%
Average Percent Inhibition [2, 10]: 35%
Average Percent Inhibition [2, 11]: 43%
Average Percent Inhibition [2, 12]: 38%
Average Percent Inhibition [2, 13]: 47%
Average Percent Inhibition [2, 14]: 41%
Average Percent Inhibition [2, 15]: 35%
Average Percent Inhibition [2, 16]: 30%
Average Percent Inhibition [2, 17]: 57%
Average Percent Inhibition [2, 18]: 67%
Average Percent Inhibition [2, 19]: 65%
Substance: Type II Collagen: bovine type II collagen, full length MMP substrate used as inhibitor of gelatinases
